{"source": "the DeepSol protein solubility set", "data": [{"test": "soluble on expression in E. coli; label from the status in PepcDB or PDB records", "values": [{"sequence": "MGSDKIHHHHHHVTYVRNNALHCGPLPQHVTAPSFRSGTGFYETLLYNGCRLVNADAHMERITRSARACGLHLLPVDLHAAAQMLLDHLGLCGSMARINLFYTLENAPAADASGLCPPLVPAVTAAPYTPPPADKAFRLCRALHGVQSWWHEHKTTAHMGHLMERTHAQAAGYDDAVLHLPDGAILETTTAALIFYNGSRFTAPFPRFRLSSTAEALVKDVLGITYEKITADRLGCMQHAYVLNALMGMRPVRSIDTAEFNPDTDLCNEMTVLIQKAA", "soluble on expression in E. coli": "not soluble"}, {"sequence": "MGSDKIHHHHHHVVLAVVVGRRTASLALRGRGGRSKGGIHLPQNRIRFGSVGCRDLRSQLRRLIEDETMSEPAEAFYLPLGDNRYEPTRATESPWDSQAQHGGPPTALLGHLLDTAAGPDKRLARITADFLGAIPRRPFRVDTVEIRPGRRIALLEARMVFDDRPAVVARAWAIETGPTPPATGEQLHPPALADADPALDLTGWGYGEAIEWRYTRGGYGTADSAADVWTRVRIPLIAGEKLTGLARTLVVADSANGVSAALPMEHWLFIPPSITVTLARFPDTEWVHMACRSHLSPDGLGVSHATLSDTDGYLGEVSQPLLVRPR", "soluble on expression in E. coli": "not soluble"}, {"sequence": "MGSDKIHHHHHHYGAQAYGMGGGGGGYNRPMNSYGNGYNNGGGFNNYGNGGGFGGNNYNNGPPPFDGGYNRPYGGGGGGGYGRPQGYVPPPPPPPTQPEPEPEPRPEPQPEPQPEPQPEPQPEPQPEPHPEPAPEPIVKPYNSYAQPHNSYVRYGGK", "soluble on expression in E. coli": "not soluble"}, {"sequence": "MGSDKIHHHHHHYMDTIPTENVSFTTVSTSLDNLYLALNGIHRKMVSQDLGNQGLGGEPGFIIGREALADDLTWDTQTWHQGFLNWSYPTNATSSYNSGEWETYYKFILNANNILKALNDNFSDESKLTDSEKALANHIKGECLAIRAWSHFNLVQYYAKPYRNGQDNSQPGVPYRTSPEIEPMARNTVEEVYTKIHGDLDEALNLLADYEPNDKNHYSLASVYGLKARALLTQQKYADAATAAVNSINEAEKDGCKIMSQSELMNGFANITSATKEAMYAAMTQNDQTVYFYSFYAYMSWNFNSSSIRTGIKCISQSTYDLMSPTDLRRQWWDPTGKAEVPATSYNQRVYQNRKFTARSTADAVGDFAFMRISEMYLTAAEAFARSNQDAKAKEYLQALLKERDPEYKDLGNTGAKLADEIMTHRRIELWGEGFRWFDLKRLGLPLDRTGSNFDATFCGFLHKDPNADGWIFEIPKKETDFNDLIEKNY", "soluble on expression in E. coli": "not soluble"}, {"sequence": "MGSDKIHHHHHHYPEPVLNPESCTSIMVGKKASADGSVMTSHTCDSNYRTWMDIVPSASYDHDTTTTVYTGRMHTEYAEGTRGMIAKGTLPEARSTYQFLNTAYPCLNEKQLGIGETTITGRKALVNKKGMFMIEELQRIALQRCTTARDAIRLMGELIEKYGYGDWGECLTIADPKEVWHFEVFGEGPDKIGGVWAAIRIPDDHVGVSANIPRISKVDPSDKENCMASANVFEVAKRMGFWDGKKPFRFWEAYGGGNYSGELKSFSIREFFILNKLAPSLHLSYDAEELPISVKPEKPVDVTDVMALLSETYEGTEYDMTKNLKVAVKKKDSNETDTIISPVANPWMTTDMVNMLNGLRPDAVKRYRLVAVPQCSYSTVIQLRDWLPDAVGGVVWMAYDNPGQSPRIPIFCGTKDLPACFKVCGQHRYREDAAVWAFRRANKLATVRWGATKDRMKASIAHFTEKGQTELPFVESRYKEILTQQGEEAAKEYLTGYTADFAGATMLRWREMGDSFWTQFERGF", "soluble on expression in E. coli": "not soluble"}, {"sequence": "MGSDKIHHHHHHYTEQPIDLVPTQPLPNASFDNFKLTCSNTKFADDLNQMTGFTKPASRELSVTFFPDLNGDVVAIDYRHYSASFKKGAKLLHKPIVWHINQATTKTTFKPNTWCLRCLWSTKPVDT", "soluble on expression in E. coli": "soluble"}, {"sequence": "MGSIISRTIPGQGHGNQYYPGVQWDVRDSAWRYVTILDLPFSLVFDTLLLPIDIHHGPYELEHHHHHH", "soluble on expression in E. coli": "not soluble"}, {"sequence": "MGSQAAHMMSMDFEDFPVESAHRILTPRPTVMVTTVDEEGNINAAPFSFTMPVSIDPPVVAFASAPDHHTARNIESTHEFVINITPADIIERMWVTARDIPAGENELEAAGLAWTSSRRVKPPRIVEAPGHLECELLRMFEVGDHNLITGSVVSASVRSGAVKEGLLDVESVKPVLHVGGNKFVVGDHVRHVE", "soluble on expression in E. coli": "soluble"}, {"sequence": "MGSSHHHHHHGGTGENLYFQGGSGMADERFDSMLLAIAQQQQGIDGILDTFFSFLNRKTDFFTQPDMARRSVQQAMSRYLAEAEEKQRKAKEAQAAAQQQQQQQQQSARTSSRVEVLESEEEVNAVAAAQAAEEAAQRKQELERAQREVAEAKAKKEAAGNEAETGATEAFADTGDAPRGLPPTAANGFAYEKYIFSQSLQEAEVRVPLPAVNVKGKQVSIVITSSHLTVGMKGQPPIVDGDLYSKVRAEECMWTIEDGHTVVVTLYKVNSMEWWKTIFQGDPEIDLQKVIPENSKLDDLDSDTRQTVEKMMYDQRQKMMGKPTSDEQKKQDMLRKFMEAHPEMDFSQAKFC", "soluble on expression in E. coli": "soluble"}, {"sequence": "MGSSHHHHHHGGTGENLYFQGGSGPAREKAIVLIDGPALVHRWYHRWSYTTERYGTSLDVKQFAIKNARFMIATAHSFDPAHMAQHLLSPQTEYAHTPKHNRIIVCFDHGDGGRRQIYADYKANRLQKAVTSEFRLIERVAKKVFADEPRESLLVVPDCDAGLANLNAEADDMIATLAFFNQQNTRPTVVMSHDYDLYQLVDEAKKSYHYDIRTKHLVSERGVMERVGVPPKLVRDFKSLAGDSSDNIPGVNGIGKVRARNLLKKYGDLDGILFKGIKKETGHLGELLNEGAKMALISRQLVDFRMCPKVIKVCESFMRI", "soluble on expression in E. coli": "not soluble"}, {"sequence": "MGSSHHHHHHGGTGENLYFQGGSGQQQPRPVVAQYAYIELLPLRYTGPAPPPAPACMDPTPDEQYRRGVAEKRAALKQKEARRQMSSSGSGMLASLKSAVSQAVMTMEKGAADVSTRTESQVRQLEYQYDCDRFNLHFHELAENGEVLLADYRCSAMHSGLRVNGHVQITPHYLCFLAETTSSIAKTTDAVMGVFVAARHPTSANDEPRNRPVGIKQVIALADIVSIQPSVVLESIGGQAPFFMLLPAPTVRPTALQLYTQDSKLYQFMNFESLVSRATVALNDVVKGTALDQAYNYLDHAWRDTVNLRSKDV", "soluble on expression in E. coli": "not soluble"}, {"sequence": "MGSSHHHHHHGKTIFVIVPTNEEQVAFLEALAKQDELNFDWQNPPTEPGQPVVILIPSDMVEWFLEMLKAKGIPFTVYVEEGGSENLYFQGGGGGGQSPRDAHTHTHTHTDAHKHVLVHICVCVCACVCVSYSLHSTLALSLPAFSPHCHSLRLGFHVFRKQRARTKTAAVAEQRGLRWTHTTARTAKSGWPPRGHTDTHTHTHTHTHITWEYASSGMTLVFEARRLPFGSISEVYAASIQPIVALHALDKLPLWDRCMLVAVLPVVQQRHSASAAAAPPSTVVRPSLTRNDSDNADAAAASLSSATVRAANHEERVNASPELAGAPSLEDVALALTIVRALDELEVVYDSSISTRAELEQQQQQQPSLPAASLAEAPRRAFKQPKKTSEELLMEQLLQERFTDTAPYLLESSDEGGENSADAAVDVAMCFTVKGESLGIGSATIFGGHGYHP", "soluble on expression in E. coli": "not soluble"}, {"sequence": "MGSSHHHHHHGSLSKQIPLGIYEKALPAGECWLERLQLAKTLGFDFVEMSVDETDERLSRLDWSREQRLALVNAIVETGVRVPSMCLSAHRRFPLGSEDDAVRAQGLEIMRKAIQFAQDVGIRVIQLAGYDVYYQEANNETRRRFRDGLKESVEMASRAQVTLAMEIMDYPLMNSISKALGYAHYLNNPWFQLYPDIGNLSAWDNDVQMELQAGIGHIVAVHVKDTKPGVFKNVPFGEGVVDFERCFETLKQSGYCGPYLIEMWSETAEDPAAEVAKARDWVKARMAKAGMVEAA", "soluble on expression in E. coli": "soluble"}, {"sequence": "MGSSHHHHHHSSGENLYFQGMTDPAPPPTALAAAKARMRELAASYGAGLPGRDTHSLMHGLDGITLTFMPMGQRDGAYDPEHHVILINSQVRPERQRFTLAHEISHALLLGDDDLLSDLHDEYEGDRLEQVIETLCNVGAAALLMPAELIDDLLTRFGPTGRALAELARRADVSATSALYALAERTAPPVIYAVCALSRQEDEGEGGGAKELTVRASSASAGVKYSLSAGTPVPDDHPAALALDTRLPLAQDSYVPFRSGRRMPAYVDAFPERQRVLVSFALPAGRSEPDADKPEAPGDQS", "soluble on expression in E. coli": "soluble"}, {"sequence": "MGSSHHHHHHSSGLGPGGSHMASMSDSEVNQEAKPEVKPEVKPETHINLKVSDGSSEIFFKIKKTTPLRRLMEAFAKRQGKEMDSLRFLYDGIRIQADQTPEDLDMEDNDIIEAHREQIGGSLGRACKYENPARWSEQEQAIKGVYSSWVTDNILAMARPSSELLEKYHIIDQFLSHGIKTIINLQRPGEHASCGNPLEQESGFTYLPEAFMEAGIYFYNFGWKDYGVASLTTILDMVKVMTFALQEGKVAIHCHAGLGRTGVLIACYLVFATRMTADQAIIFVRAKRPNSIQTRGQLLCVREFTQFLTPLRNIFSEGHHHHHH", "soluble on expression in E. coli": "soluble"}, {"sequence": "MGSSHHHHHHSSGLVPRGSHMAHQDALPRLPVPPLQQSLDYYLKALQPIVSEEEWAHTKQLVDEFQTSGGVGERLQKGLERRAKKMENWLSEWWLKTAYLQFRQPVVIYSSPGVILPKQDFVDLQGQLRFAAKLIEGVLDFKSMIDNETLPVEFLGGQPLCMNQYYQILSSCRVPGPKQDSVVNFLKSKRPPTHITVVHNYQFFELDVYHSDGTPLTSDQIFVQLEKIWNSSLQSNKEPVGILTSNHRNTWAKAYNNLIKDKVNRESVNSIQKSIFTVCLDKQVPRVSDDVYRNHVAGQMLHGGGSKFNSGNRWFDKTLQFIVAEDGSCGMVYEHAAAEGPPIVALVDHVMEYTKKPELVRSPMVPLPMPKKLRFNITPEIKNDIEKAKQNLSIMIQDLDIMMLTFHHFGKDFPKSEKLSPDAFIQVALQLAYYRIYGQACATYESASLRMFHLGRTDTIRSASIDSLAFVKGMGDSTVPEQQKVELLRKAVQAHRAYTDRAIRGEAFDRHLLGLKLQAIEDLVSMPDIFMDTSYAIAMHFNLSTSQVPAKTDCVMAFGPVVPDGYGICYNPMEAHINFSVSAYNSCAETNAARMAHYLEKALLDMRTLLQNHPRAKL", "soluble on expression in E. coli": "soluble"}, {"sequence": "MGSSHHHHHHSSGLVPRGSHMASAVVQEVSAEAQAPAVVKNPPKLALKIDRADVNQLPRNFRMGSDKYVGVTKTGIMPTRKGMDTMNVSASSCFSEKELEAILKKVPVKPSQFYDVDLRGESHGYLNGTAVSWFANHDWGNDGRTEDIIIPLEKEQLASLKGSTVKSIYRFDDKKNVILSPVYVNYNKVRTEEEMVKQHGANYFRLTLQDHFRPDDPDVDKFLEFYKSLPKDAWLHYHCYAGMGRTTIFMVMHDILKNAKDVSFDDIIQRQKLIGIVDLSEIPDKKKNYGRKAYIERYQFVQHFYDYVKENPDLKTPYSVWAKKNKVNSWEPDYNGYIWRLDTKDRNQLPRNFRTMNSAFRTDVNVKKTGKGFTPTPTRKGLDTLYMSGSAEFSNGELQAMLPVLKQQAKGPIYIMDLRQETHGVFNGNAVSWYGLRDWGNLGKNKAEVLKDENSRLNAARGKSLIVAELDKDKMPIDPKPVKIESVMTEQQLVEKNGLHYYRIAATDHIWPSAANIDEFINFTRTMPANAWLHFHCQAGAGRTTAYMAMYDMMKNPDVSLGDILSRQYLLGGNYVAYEIAKPKPDQWKADYYHQKAHMIEKFYQYVQENHADGFKTSWSQWLAAHQDV", "soluble on expression in E. coli": "soluble"}]}]}
